[ ]: non-standard residue; d: D form. The star is where a group is joined. Dansyl = CN(C)c1cccc2c(S(=O)(=O)*)cccc12; 2Nal = N[C@@H](Cc1ccc2ccccc2c1)C(=O)O; dNle = CCCC[C@@H](N)C(=O)O; Ahx = NCCCCCC(=O)O; βAla = NCCC(=O)O; Sar = CNCC(=O)O
B1: Compound 22 (peptide)
peptide: Ac-[dL][dNle][dR][βAla][dV][dR][dL][dR][dV][βAla][dL][dR][dK][dR][dR][dR][dR][dR]G[2Nal]-NH2
SMILES: CCCC[C@@H](NC(=O)[C@@H](CC(C)C)NC(C)=O)C(=O)N[C@H](CCCNC(=N)N)C(=O)NCCC(=O)N[C@@H](C(=O)N[C@H](CCCNC(=N)N)C(=O)N[C@H](CC(C)C)C(=O)N[C@H](CCCNC(=N)N)C(=O)N[C@@H](C(=O)NCCC(=O)N[C@H](CC(C)C)C(=O)N[C@H](CCCNC(=N)N)C(=O)N[C@H](CCCCN)C(=O)N[C@H](CCCNC(=N)N)C(=O)N[C@H](CCCNC(=N)N)C(=O)N[C@H](CCCNC(=N)N)C(=O)N[C@H](CCCNC(=N)N)C(=O)N[C@H](CCCNC(=N)N)C(=O)NCC(=O)N[C@@H](Cc1ccc2ccccc2c1)C(N)=O)C(C)C)C(C)C
B2: Compound 25 (peptide)
peptide: Ac-[dL][dNle][dR][dS][dV][dR][dL][dR][dV]G[dL][dR][Ahx][dR][Ahx][dR][Ahx][dR][Ahx][dR][Ahx][dR]-NH2
SMILES: CCCC[C@@H](NC(=O)[C@@H](CC(C)C)NC(C)=O)C(=O)N[C@H](CCCNC(=N)N)C(=O)N[C@H](CO)C(=O)N[C@@H](C(=O)N[C@H](CCCNC(=N)N)C(=O)N[C@H](CC(C)C)C(=O)N[C@H](CCCNC(=N)N)C(=O)N[C@@H](C(=O)NCC(=O)N[C@H](CC(C)C)C(=O)N[C@H](CCCNC(=N)N)C(=O)NCCCCCC(=O)N[C@H](CCCNC(=N)N)C(=O)NCCCCCC(=O)N[C@H](CCCNC(=N)N)C(=O)NCCCCCC(=O)N[C@H](CCCNC(=N)N)C(=O)NCCCCCC(=O)N[C@H](CCCNC(=N)N)C(=O)NCCCCCC(=O)N[C@H](CCCNC(=N)N)C(N)=O)C(C)C)C(C)C
B3: Compound 24 (peptide)
peptide: Ac-[dL][dNle][dR][dA][dV][dR][dL][dR][dV][βAla][dL][dR][Ahx][dR][Ahx][dR][Ahx][dR][Ahx][dR][Ahx][dR][Ahx][dY]-NH2
SMILES: CCCC[C@@H](NC(=O)[C@@H](CC(C)C)NC(C)=O)C(=O)N[C@H](CCCNC(=N)N)C(=O)N[C@H](C)C(=O)N[C@@H](C(=O)N[C@H](CCCNC(=N)N)C(=O)N[C@H](CC(C)C)C(=O)N[C@H](CCCNC(=N)N)C(=O)N[C@@H](C(=O)NCCC(=O)N[C@H](CC(C)C)C(=O)N[C@H](CCCNC(=N)N)C(=O)NCCCCCC(=O)N[C@H](CCCNC(=N)N)C(=O)NCCCCCC(=O)N[C@H](CCCNC(=N)N)C(=O)NCCCCCC(=O)N[C@H](CCCNC(=N)N)C(=O)NCCCCCC(=O)N[C@H](CCCNC(=N)N)C(=O)NCCCCCC(=O)N[C@H](CCCNC(=N)N)C(=O)NCCCCCC(=O)N[C@H](Cc1ccc(O)cc1)C(N)=O)C(C)C)C(C)C
B4: Compound 9 (peptide)
peptide: Ac-[dL][dNle][dR][dS][dV][dR][dL][dR][dV]G[dL][dR][dK][dR][dR][dR][dR][dR][dR][dR]-NH2
SMILES: CCCC[C@@H](NC(=O)[C@@H](CC(C)C)NC(C)=O)C(=O)N[C@H](CCCNC(=N)N)C(=O)N[C@H](CO)C(=O)N[C@@H](C(=O)N[C@H](CCCNC(=N)N)C(=O)N[C@H](CC(C)C)C(=O)N[C@H](CCCNC(=N)N)C(=O)N[C@@H](C(=O)NCC(=O)N[C@H](CC(C)C)C(=O)N[C@H](CCCNC(=N)N)C(=O)N[C@H](CCCCN)C(=O)N[C@H](CCCNC(=N)N)C(=O)N[C@H](CCCNC(=N)N)C(=O)N[C@H](CCCNC(=N)N)C(=O)N[C@H](CCCNC(=N)N)C(=O)N[C@H](CCCNC(=N)N)C(=O)N[C@H](CCCNC(=N)N)C(=O)N[C@H](CCCNC(=N)N)C(N)=O)C(C)C)C(C)C
B5: Compound 19 (peptide)
peptide: Dansyl-[Sar][dL][dNle][dR][dS][dV][dR][dL][dR][dV]G[dL][dR][dK][dR][dR][dR][dR][dR]-NH2
SMILES: CCCC[C@@H](NC(=O)[C@@H](CC(C)C)NC(=O)CN(C)S(=O)(=O)c1cccc2c(N(C)C)cccc12)C(=O)N[C@H](CCCNC(=N)N)C(=O)N[C@H](CO)C(=O)N[C@@H](C(=O)N[C@H](CCCNC(=N)N)C(=O)N[C@H](CC(C)C)C(=O)N[C@H](CCCNC(=N)N)C(=O)N[C@@H](C(=O)NCC(=O)N[C@H](CC(C)C)C(=O)N[C@H](CCCNC(=N)N)C(=O)N[C@H](CCCCN)C(=O)N[C@H](CCCNC(=N)N)C(=O)N[C@H](CCCNC(=N)N)C(=O)N[C@H](CCCNC(=N)N)C(=O)N[C@H](CCCNC(=N)N)C(=O)N[C@H](CCCNC(=N)N)C(N)=O)C(C)C)C(C)C
B6: Compound 21 (peptide)
peptide: Ac-[dL][dNle][dR][dS][dV][dR][dL][dR][dV]G[dL][dR][dR][dR][dR][dR][dR][Sar][Sar]-OMe
SMILES: CCCC[C@@H](NC(=O)[C@@H](CC(C)C)NC(C)=O)C(=O)N[C@H](CCCNC(=N)N)C(=O)N[C@H](CO)C(=O)N[C@@H](C(=O)N[C@H](CCCNC(=N)N)C(=O)N[C@H](CC(C)C)C(=O)N[C@H](CCCNC(=N)N)C(=O)N[C@@H](C(=O)NCC(=O)N[C@H](CC(C)C)C(=O)N[C@H](CCCNC(=N)N)C(=O)N[C@H](CCCNC(=N)N)C(=O)N[C@H](CCCNC(=N)N)C(=O)N[C@H](CCCNC(=N)N)C(=O)N[C@H](CCCNC(=N)N)C(=O)N[C@H](CCCNC(=N)N)C(=O)N(C)CC(=O)N(C)CC(=O)OC)C(C)C)C(C)C
B7: Compound 20 (peptide)
peptide: Dansyl-[Sar][dL][dNle][dR][dS][dV][dR][dL][dR][dV]G[dL][dR][dR][dR][dR][dR][dR][Sar][Sar]-OMe
SMILES: CCCC[C@@H](NC(=O)[C@@H](CC(C)C)NC(=O)CN(C)S(=O)(=O)c1cccc2c(N(C)C)cccc12)C(=O)N[C@H](CCCNC(=N)N)C(=O)N[C@H](CO)C(=O)N[C@@H](C(=O)N[C@H](CCCNC(=N)N)C(=O)N[C@H](CC(C)C)C(=O)N[C@H](CCCNC(=N)N)C(=O)N[C@@H](C(=O)NCC(=O)N[C@H](CC(C)C)C(=O)N[C@H](CCCNC(=N)N)C(=O)N[C@H](CCCNC(=N)N)C(=O)N[C@H](CCCNC(=N)N)C(=O)N[C@H](CCCNC(=N)N)C(=O)N[C@H](CCCNC(=N)N)C(=O)N[C@H](CCCNC(=N)N)C(=O)N(C)CC(=O)N(C)CC(=O)OC)C(C)C)C(C)C
B8: Compound 23 (peptide)
peptide: Ac-[dL][dNle][dR][dA][dV][dR][dL][dR][dV][βAla][dL][dR][Ahx][dR][Ahx][dR][Ahx][dR][Ahx][dR][Ahx][dR]-NH2
SMILES: CCCC[C@@H](NC(=O)[C@@H](CC(C)C)NC(C)=O)C(=O)N[C@H](CCCNC(=N)N)C(=O)N[C@H](C)C(=O)N[C@@H](C(=O)N[C@H](CCCNC(=N)N)C(=O)N[C@H](CC(C)C)C(=O)N[C@H](CCCNC(=N)N)C(=O)N[C@@H](C(=O)NCCC(=O)N[C@H](CC(C)C)C(=O)N[C@H](CCCNC(=N)N)C(=O)NCCCCCC(=O)N[C@H](CCCNC(=N)N)C(=O)NCCCCCC(=O)N[C@H](CCCNC(=N)N)C(=O)NCCCCCC(=O)N[C@H](CCCNC(=N)N)C(=O)NCCCCCC(=O)N[C@H](CCCNC(=N)N)C(=O)NCCCCCC(=O)N[C@H](CCCNC(=N)N)C(N)=O)C(C)C)C(C)C

Molecular target: human RAD51 (human) (UniProt Q06609)
Experiment: cell-based or functional assay

Chain of human RAD51 (human) (Q06609 2-339 limits assumed): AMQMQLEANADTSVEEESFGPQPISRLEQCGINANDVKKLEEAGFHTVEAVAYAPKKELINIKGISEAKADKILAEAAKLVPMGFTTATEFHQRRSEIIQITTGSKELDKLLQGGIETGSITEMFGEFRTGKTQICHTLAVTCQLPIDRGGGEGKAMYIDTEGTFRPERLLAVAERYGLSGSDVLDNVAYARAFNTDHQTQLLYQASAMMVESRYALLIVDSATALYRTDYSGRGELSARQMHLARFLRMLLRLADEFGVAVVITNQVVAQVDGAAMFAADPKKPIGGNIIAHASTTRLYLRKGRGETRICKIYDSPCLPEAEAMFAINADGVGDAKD

Row | Binder | IC50 [µM]
1 | B1 | 18
2 | B2 | 14
3 | B3 | 6.2
4 | B4 | 20
5 | B5 | 6.2
6 | B6 | 25
7 | B7 | 8.6
8 | B8 | 20.6
